The experiment deals with Ub2 (Homo sapiens). Kind of experiment: ITC; values taken from Vincendeau et al. Background: Isothermal titration calorimetry measures the heat released or taken up as one component is titrated into another.

B1: Human NEMO258-350 C347S (NEMO UBAN domain) (domain or fragment)
chain: MQLEDLKQQLQQAEEALVAKQEVIDKLKEEAEQHKIVMETVPVLKAQADIYKADFQAERQAREKLAEKKELLQEQLEQLQREYSKLKASSQES
modifications: linear (M1-linked) diubiquitin, two 76-residue units fused head to tail; the N-terminal His-tag present in the SAXS sample is left out
With B1, the Kd (commonly the free concentration of one partner at which half of the binding sites on the other are occupied at equilibrium, for simple one-to-one binding) is 1810 nM. This counts as single-digit micromolar.
